Assay results as given in EP1234033B1.

Target: FGF receptor-3c on human osteosarcoma cell line (ATCC, CRL 1543) (human) (UniProt P22607)
Experiment: cell-based or functional assay

Chain of UniProt P22607 (P22607 23-806): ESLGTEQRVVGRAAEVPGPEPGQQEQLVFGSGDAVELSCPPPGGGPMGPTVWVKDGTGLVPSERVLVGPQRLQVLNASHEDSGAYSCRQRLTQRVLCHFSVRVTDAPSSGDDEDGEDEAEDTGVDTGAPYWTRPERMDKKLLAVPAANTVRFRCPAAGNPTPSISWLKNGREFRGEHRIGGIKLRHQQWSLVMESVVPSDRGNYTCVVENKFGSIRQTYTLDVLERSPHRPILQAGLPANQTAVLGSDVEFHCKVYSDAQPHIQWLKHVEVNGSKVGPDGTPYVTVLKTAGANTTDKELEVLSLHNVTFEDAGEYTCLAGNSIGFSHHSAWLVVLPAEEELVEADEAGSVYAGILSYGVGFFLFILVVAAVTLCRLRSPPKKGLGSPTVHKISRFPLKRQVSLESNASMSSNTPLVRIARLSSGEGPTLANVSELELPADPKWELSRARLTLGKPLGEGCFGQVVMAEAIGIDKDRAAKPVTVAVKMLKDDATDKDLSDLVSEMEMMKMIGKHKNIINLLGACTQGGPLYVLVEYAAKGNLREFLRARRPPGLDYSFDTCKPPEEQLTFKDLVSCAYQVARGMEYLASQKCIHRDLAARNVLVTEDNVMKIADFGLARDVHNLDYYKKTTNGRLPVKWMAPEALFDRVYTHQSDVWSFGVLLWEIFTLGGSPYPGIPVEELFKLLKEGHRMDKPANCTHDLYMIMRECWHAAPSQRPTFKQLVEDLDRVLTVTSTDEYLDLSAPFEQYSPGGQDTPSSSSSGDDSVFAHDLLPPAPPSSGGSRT

Substance: FGF-18-saporin conjugate
- LD50 (sensitivity of cell line to the FGF-18-saporin conjugate): < 1 nM
